Results taken from paper PMC11016934, “Mechanism of GTPase activation of a prokaryotic small Ras-like GTPase MglA by an asymmetrically interacting MglB dimer” (The Journal of Biological Chemistry, 2024).

Columns and labels:
[1] = biological target: MglA-link-MglB1 with C-terminal hexahistidine tag (mglA-link-mglB-H6) (Myxococcus xanthus) (UniProt Q1DB03)
[2] = biological target: MglA-link-MglB^ΔCt with C-terminal hexahistidine tag (mglA-link-mglB^ΔCt-H6) (Myxococcus xanthus) (UniProt Q1DB03)
[3] = biological target: MglB^ΔCt with C-terminal Strep-tag (MglB^ΔCt-Strep) (Myxococcus xanthus) (UniProt Q1DB03); test: SEC-MALS; Superdex 200 Increase 10/300 GL, room temperature (about 25 °C), 50 mM NaCl, 50 mM Tris pH 8.0, 0.4 ml/min; purified linked complexes loaded at approximately 5 mg/ml, 110 μl
[4] = biological target: T1, MglA (mutual gliding protein A), unlinked (Myxococcus xanthus) (UniProt Q1DB04)
T1 sequence: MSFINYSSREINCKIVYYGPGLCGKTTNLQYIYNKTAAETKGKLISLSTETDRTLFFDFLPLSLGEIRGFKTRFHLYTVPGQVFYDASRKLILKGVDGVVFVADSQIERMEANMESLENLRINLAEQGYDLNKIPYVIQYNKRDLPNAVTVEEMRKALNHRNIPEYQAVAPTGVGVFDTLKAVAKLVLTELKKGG

[5] = biological target: T2, MglB with C-terminal Strep-tag (MglB-Strep) (Myxococcus xanthus), Q1DB03; test: SEC-MALS; Superdex 200 Increase 10/300 GL, room temperature (about 25 °C), 50 mM NaCl, 50 mM Tris pH 8.0, 0.4 ml/min; purified linked complexes loaded at approximately 5 mg/ml, 110 μl; details: remark: other sources report otherwise
T2 chain: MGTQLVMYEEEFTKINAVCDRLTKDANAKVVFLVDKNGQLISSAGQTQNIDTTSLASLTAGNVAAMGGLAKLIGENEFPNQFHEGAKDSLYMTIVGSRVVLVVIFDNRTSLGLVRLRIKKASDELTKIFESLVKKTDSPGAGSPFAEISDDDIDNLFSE

[6] = biological target: T3, MglB, unlinked wild type (Myxococcus xanthus), Q1DB03; test: SEC; purified MglB^WT, MglB^ΔN and MglB^N37,R98A (Fig. S1B); details: remark: other sources report otherwise
T3 chain: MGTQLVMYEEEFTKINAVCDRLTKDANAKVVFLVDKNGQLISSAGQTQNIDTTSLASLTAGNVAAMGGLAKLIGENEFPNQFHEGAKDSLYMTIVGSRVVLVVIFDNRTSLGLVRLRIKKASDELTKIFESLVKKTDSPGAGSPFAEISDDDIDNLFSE

[7] = biological target: the molecule itself; test: as above

Molecule: MglB^ΔCt with C-terminal Strep-tag (MglB^ΔCt-Strep) (from UniProt Q1DB03 1-159) (domain or fragment)
- GTPase activity kobs of the linked complex {AB1B2^ΔCt} (NADH-coupled assay) [1]: 0.17 min⁻¹
- GTPase activity kobs of the linked complex {AB^ΔCt} (NADH-coupled assay) [2]: 0.1 min⁻¹
- stoichiometry N [3]: 2

B1: MglB with C-terminal Strep-tag (MglB-Strep) (natural protein)
chain: MGTQLVMYEEEFTKINAVCDRLTKDANAKVVFLVDKNGQLISSAGQTQNIDTTSLASLTAGNVAAMGGLAKLIGENEFPNQFHEGAKDSLYMTIVGSRVVLVVIFDNRTSLGLVRLRIKKASDELTKIFESLVKKTDSPGAGSPFAEISDDDIDNLFSE
- GTPase activity kobs of the linked complex {AB^WT} (NADH-coupled assay, GDP released per minute per μM enzyme) [1]: 0.2 min⁻¹
- GTPase activity kobs of the linked complex {AB1^ΔCtB2} (NADH-coupled assay) [2]: 0.07 min⁻¹

B2: MglB^ΔCt, unlinked (domain or fragment)
chain: MGTQLVMYEEEFTKINAVCDRLTKDANAKVVFLVDKNGQLISSAGQTQNIDTTSLASLTAGNVAAMGGLAKLIGENEFPNQFHEGAKDSLYMTIVGSRVVLVVIFDNRTSLGLVRLRIKKASDELTKIFESLVKKTDSPGAGSPFAEISDDDIDNLFSE
- GTPase activity kobs of unlinked AB^ΔCt (NADH-coupled assay) [4]: 0.08 min⁻¹

B3: MglB with C-terminal Strep-tag (MglB-Strep), Q1DB03 1-159 (natural protein)
chain: MGTQLVMYEEEFTKINAVCDRLTKDANAKVVFLVDKNGQLISSAGQTQNIDTTSLASLTAGNVAAMGGLAKLIGENEFPNQFHEGAKDSLYMTIVGSRVVLVVIFDNRTSLGLVRLRIKKASDELTKIFESLVKKTDSPGAGSPFAEISDDDIDNLFSE
- stoichiometry N [5]: 2

B4: MglB, unlinked wild type, Q1DB03 1-159 (natural protein)
chain: MGTQLVMYEEEFTKINAVCDRLTKDANAKVVFLVDKNGQLISSAGQTQNIDTTSLASLTAGNVAAMGGLAKLIGENEFPNQFHEGAKDSLYMTIVGSRVVLVVIFDNRTSLGLVRLRIKKASDELTKIFESLVKKTDSPGAGSPFAEISDDDIDNLFSE
- stoichiometry N [6]: 2

B5: MglB^ΔN (natural protein, Myxococcus xanthus)
chain: MYEEEFTKINAVCDRLTKDANAKVVFLVDKNGQLISSAGQTQNIDTTSLASLTAGNVAAMGGLAKLIGENEFPNQFHEGAKDSLYMTIVGSRVVLVVIFDNRTSLGLVRLRIKKASDELTKIFESLVKKTDSPGAGSPFAEISDDDIDNLFSE
notes: MglB, Myxococcus xanthus, with the N-terminal β-strand (residues 2 to 7) deleted; Dimer by SEC; also called MglB with residues 2 to 7 deleted; source: E. coli BL21AI, purified (as MglB, then Superdex 75 and MonoQ)
- stoichiometry N [7]: 2

B6: MglB^N37,R98A (natural protein, Myxococcus xanthus)
chain: MGTQLVMYEEEFTKINAVCDRLTKDANAKVVFLVDKAGQLISSAGQTQNIDTTSLASLTAGNVAAMGGLAKLIGENEFPNQFHEGAKDSLYMTIVGSAVVLVVIFDNRTSLGLVRLRIKKASDELTKIFESLVKKTDSPGAGSPFAEISDDDIDNLFSE
notes: MglB, Myxococcus xanthus, Asn-37 and Arg-98 mutated to alanines; also called double mutant of Asn-37 and Arg-98 to alanines; source: E. coli BL21AI, purified (as MglB, then Superdex 75 and MonoQ)
- binding result [7]: binds
